Target: native Neospora caninum cyclophilin (NcCyP) in whole-cell tachyzoite lysate (NcAg) (Neospora caninum) (UniProt P84343)
Experiment: cell-based or functional assay

UniProt P84343, sequence (P84343 18-178 limits assumed): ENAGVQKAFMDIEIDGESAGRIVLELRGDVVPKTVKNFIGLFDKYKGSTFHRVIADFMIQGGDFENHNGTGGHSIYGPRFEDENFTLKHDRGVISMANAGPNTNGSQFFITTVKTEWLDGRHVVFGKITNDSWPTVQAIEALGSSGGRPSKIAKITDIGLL

## cyclosporin A (CsA) (peptide)
  NcAg-stimulated IFNγ production in mouse splenocytes: 10 to 100 nM

Reference: patent publication US20090208519A1
